Earlier results in publication PMC7532970.
Where two headings read alike, the source gives them in different places.

What was measured:
CBP KIX (Homo sapiens) [1] = molecular target: CBP KIX (Homo sapiens) (UniProt Q92793)
CBP KIX (Homo sapiens) [2] = molecular target: CBP KIX (Homo sapiens) (UniProt Q92793); remark: listed apart in the source
CBP KIX (Homo sapiens) [3] = molecular target: CBP KIX (Homo sapiens) (UniProt Q92793); remark: listed apart in the source

CBP KIX (Homo sapiens), sequence (Q92793 584-669): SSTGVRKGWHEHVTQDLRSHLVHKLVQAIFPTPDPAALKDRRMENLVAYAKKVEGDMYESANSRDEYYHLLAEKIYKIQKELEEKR
c-myb, sequence (P10242 whole entry): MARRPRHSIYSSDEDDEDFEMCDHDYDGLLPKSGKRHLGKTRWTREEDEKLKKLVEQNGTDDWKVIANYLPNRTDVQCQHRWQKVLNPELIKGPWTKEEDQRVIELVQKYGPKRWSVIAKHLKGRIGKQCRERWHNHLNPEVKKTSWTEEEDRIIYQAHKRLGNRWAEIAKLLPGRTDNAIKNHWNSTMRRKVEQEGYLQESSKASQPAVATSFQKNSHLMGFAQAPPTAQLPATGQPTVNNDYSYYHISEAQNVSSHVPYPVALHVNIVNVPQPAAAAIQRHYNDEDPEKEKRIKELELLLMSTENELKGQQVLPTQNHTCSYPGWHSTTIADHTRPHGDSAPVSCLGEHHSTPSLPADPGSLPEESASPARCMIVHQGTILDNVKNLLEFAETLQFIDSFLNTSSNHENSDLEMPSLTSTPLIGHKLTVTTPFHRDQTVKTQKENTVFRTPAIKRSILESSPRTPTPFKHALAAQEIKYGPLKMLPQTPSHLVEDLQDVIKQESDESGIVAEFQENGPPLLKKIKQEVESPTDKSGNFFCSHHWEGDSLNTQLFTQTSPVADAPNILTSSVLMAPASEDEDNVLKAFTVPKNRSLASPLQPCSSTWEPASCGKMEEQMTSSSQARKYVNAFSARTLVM
CREB, sequence (P16220 whole entry): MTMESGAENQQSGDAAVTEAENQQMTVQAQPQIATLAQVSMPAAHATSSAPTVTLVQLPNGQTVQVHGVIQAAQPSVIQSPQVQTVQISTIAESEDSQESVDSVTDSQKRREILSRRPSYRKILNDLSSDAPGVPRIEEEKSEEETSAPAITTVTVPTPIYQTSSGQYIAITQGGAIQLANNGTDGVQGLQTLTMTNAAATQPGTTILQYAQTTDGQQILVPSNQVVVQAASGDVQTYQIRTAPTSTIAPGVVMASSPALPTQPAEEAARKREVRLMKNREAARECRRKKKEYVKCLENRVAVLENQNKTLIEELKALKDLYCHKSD

Question: With CREB (from UniProt P16220) as the substance, how does the Kd (CBP KIX (Homo sapiens) [1]) read?
Answer: 0.7 µM

Question: For c-myb (from UniProt P10242), which Kd (CBP KIX (Homo sapiens) [2]) is on record?
Answer: 15 µM

Question: Which Kd (CBP KIX (Homo sapiens) [3]) does the source give for p53 (from UniProt P04637) here?
Answer: > 90 µM
